Reference: US20220025045A1

Key:
[1] = molecular target: ILT2 on primary human NK cells (human) (UniProt Q8NHL6); assay: flow cytometry, primary NK cells
[2] = molecular target: recombinant human ILT2 protein (analyte in SPR and Octet) (human) (UniProt Q8NHL6); assay: BLI (Octet RED96), mAb captured on AMC biosensor, 1:1 model
[3] = molecular target: human ILT-2 (LILRB1), complete form expressed at the cell surface (human) (UniProt Q8NHL6); assay: flow cytometry, CHO-ILT2 cells
[4] = molecular target: recombinant human CD16a(F) (human) (UniProt P08637); assay: SPR, antibody immobilized, soluble FcR, steady state
[5] = molecular target: recombinant human CD16a(V) (human) (UniProt P08637); assay: as above
[6] = molecular target: recombinant human CD16b (human) (UniProt O75015); assay: as above
[7] = molecular target: recombinant human CD32a (human) (UniProt P12318); assay: as above
[8] = molecular target: human FcRn (human) (UniProt P55899); assay: SPR, antibody immobilized, soluble FcR
[9] = molecular target: recombinant human CD32b (human) (UniProt P31994); assay: SPR, antibody immobilized, soluble FcR, steady state
[10] = molecular target: recombinant human CD64 (human) (UniProt P12314); assay: SPR, antibody immobilized, soluble CD64, 1:1 kinetic model
Sequence of recombinant human CD64 (human) (P12314 16-288 limits assumed): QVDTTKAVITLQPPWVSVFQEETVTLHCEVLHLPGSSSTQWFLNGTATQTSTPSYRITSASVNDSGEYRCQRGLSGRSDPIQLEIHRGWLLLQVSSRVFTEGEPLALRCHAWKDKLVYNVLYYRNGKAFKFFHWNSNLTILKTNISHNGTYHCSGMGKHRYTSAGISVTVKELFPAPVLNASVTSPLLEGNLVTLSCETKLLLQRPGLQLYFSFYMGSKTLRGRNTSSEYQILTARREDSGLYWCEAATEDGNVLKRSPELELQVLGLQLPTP

Sequence of recombinant human ILT2 protein (analyte in SPR and Octet) (human) (Q8NHL6 24-458 limits assumed): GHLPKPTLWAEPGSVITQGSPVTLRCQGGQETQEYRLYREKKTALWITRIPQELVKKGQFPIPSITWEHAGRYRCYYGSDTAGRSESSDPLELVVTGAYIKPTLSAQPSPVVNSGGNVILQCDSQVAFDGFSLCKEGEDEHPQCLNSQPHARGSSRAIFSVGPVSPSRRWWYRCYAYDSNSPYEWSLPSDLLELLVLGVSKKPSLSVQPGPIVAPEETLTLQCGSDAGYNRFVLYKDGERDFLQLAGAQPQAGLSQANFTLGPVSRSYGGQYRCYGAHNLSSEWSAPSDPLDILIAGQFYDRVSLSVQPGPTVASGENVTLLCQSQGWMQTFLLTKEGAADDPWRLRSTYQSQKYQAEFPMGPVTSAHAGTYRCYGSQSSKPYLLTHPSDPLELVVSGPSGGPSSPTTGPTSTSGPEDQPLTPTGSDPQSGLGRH
Sequence of recombinant human CD32a (human) (P12318 36-218): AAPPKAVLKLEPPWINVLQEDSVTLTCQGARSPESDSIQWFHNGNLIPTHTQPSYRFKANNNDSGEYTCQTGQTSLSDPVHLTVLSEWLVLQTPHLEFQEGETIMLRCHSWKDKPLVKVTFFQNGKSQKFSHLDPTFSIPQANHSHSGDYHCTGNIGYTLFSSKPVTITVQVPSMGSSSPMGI
Sequence of recombinant human CD16a(V) (human) (P08637 17-208 F176V limits assumed): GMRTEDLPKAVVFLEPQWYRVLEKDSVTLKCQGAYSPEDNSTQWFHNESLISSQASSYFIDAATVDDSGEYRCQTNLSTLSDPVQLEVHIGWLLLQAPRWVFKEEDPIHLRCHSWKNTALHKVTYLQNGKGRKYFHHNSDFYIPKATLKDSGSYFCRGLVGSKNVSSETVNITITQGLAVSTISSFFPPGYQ
Sequence of recombinant human CD32b (human) (P31994 46-217): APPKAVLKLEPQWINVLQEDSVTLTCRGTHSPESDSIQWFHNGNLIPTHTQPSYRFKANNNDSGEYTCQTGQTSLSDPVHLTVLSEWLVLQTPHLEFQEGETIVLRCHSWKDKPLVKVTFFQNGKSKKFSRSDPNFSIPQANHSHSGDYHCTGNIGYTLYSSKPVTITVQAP
Sequence of recombinant human CD16a(F) (human) (P08637 17-208 limits assumed): as the sequence (P08637 17-208 F176V limits assumed) above, with V160F counted along it
Sequence of human ILT-2 (LILRB1), complete form expressed at the cell surface (human) (Q8NHL6 24-650): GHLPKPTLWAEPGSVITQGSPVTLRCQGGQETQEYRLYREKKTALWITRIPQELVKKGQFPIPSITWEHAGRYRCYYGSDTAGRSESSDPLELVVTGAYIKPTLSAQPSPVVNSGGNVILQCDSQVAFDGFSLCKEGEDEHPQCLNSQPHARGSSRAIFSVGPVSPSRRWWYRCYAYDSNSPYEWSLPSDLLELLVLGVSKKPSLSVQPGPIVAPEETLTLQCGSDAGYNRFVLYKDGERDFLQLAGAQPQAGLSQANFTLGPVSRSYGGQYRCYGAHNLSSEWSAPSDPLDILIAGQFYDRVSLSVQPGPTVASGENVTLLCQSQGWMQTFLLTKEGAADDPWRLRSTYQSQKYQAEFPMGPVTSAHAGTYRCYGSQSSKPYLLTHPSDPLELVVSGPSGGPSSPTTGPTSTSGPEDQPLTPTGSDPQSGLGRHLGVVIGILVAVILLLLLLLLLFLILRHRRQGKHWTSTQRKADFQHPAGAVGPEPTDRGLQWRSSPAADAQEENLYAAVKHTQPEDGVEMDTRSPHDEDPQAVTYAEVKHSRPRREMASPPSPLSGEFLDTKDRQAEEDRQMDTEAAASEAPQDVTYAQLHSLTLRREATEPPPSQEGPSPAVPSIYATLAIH
Sequence of ILT2 on primary human NK cells (human) (Q8NHL6 24-650): as above
Sequence of recombinant human CD16b (human) (O75015 17-200 limits assumed): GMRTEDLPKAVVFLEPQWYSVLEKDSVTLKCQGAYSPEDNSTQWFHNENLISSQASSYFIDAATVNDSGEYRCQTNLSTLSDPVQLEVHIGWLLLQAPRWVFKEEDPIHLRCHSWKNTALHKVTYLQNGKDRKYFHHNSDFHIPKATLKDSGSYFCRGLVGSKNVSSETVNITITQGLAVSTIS

Kd [5] [nM]	Kd [7] [nM]	Kd [8] [nM]	Kd [9] [nM]	Kd [10] [nM]	Substance	further results
–	–	–	–	–	HP-F1 (antibody)	EC50 [1]: 0.09 µg/mL; Kd [2]: 2.3 nM; koff [2]: 0.0011 s⁻¹; kon [2]: 460000 M⁻¹ s⁻¹; EC50 [3]: 0.56 µg/mL
734	2080	1270	–	–	antibody having wild type human IgG1 domain	Kd [4]: 962 nM; Kd [6]: 15000 nM
–	–	714	–	–	human IgG1 antibody having L234A/L235E/G237A/A330S/P331S substitutions	–
–	18200	–	21800	–	human IgG1 antibody having L234A/L235E/G237A/A330S/P331S substitutions (antibody; other documents disagree on this pair)	–
–	16800	758	16600	–	human IgG1 antibody having L234A/L235E/G237A/P331S substitutions	–
9920	19900	1510	79800	1550	human IgG1 antibody having L234A/L235E/P331S substitutions	–
8630	14200	627	17400	933	human IgG1 antibody having L234F/L235E/P331S substitutions	Kd [4]: 35600 nM
–	–	712	–	278	human IgG1 antibody having a N297S substitution	–
